molecular target: P-tau peptide (wild-type P-tau peptide and its pure cis or cis-locked, and pure trans counterparts); assay: Biacore (SPR) with P-tau peptide

Kd [nM]	Relative KD	Binder
1.91	1.52 fold of HT13	Cis-mAb HT18 (humanized) (antibody, V domains shown) VH: QVQLVQSGAEVKKPGSSVKVSCKASGYTFTSYWIHWVRQAPGQGLEWMGVIDPSDSYTRYNQKFKGRVTITRDTSMSTAYTELSSLRSEDTAVYYCTTWEVDYWGQGTLVTVSS VL: DIQMTQSPSTLSASVGDRVTITCRSSQSLVHSDGNTYLHWYQQKPGKAPKLLIYKVSNRFSGVPSRFSGSGSGTEFTLTISSLQPDDFATYYCSQSTHVPWTFGQGTKLEIK
1.26	1 fold of HT13	Cis-mAb HT13 (mouse-human chimera, control) (antibody, V domains shown) VH: QVQLQQPGAELVKPGASVKMSCKASGYTFTSYWIHWVKQRPGQGLEWIGVIDPSDSYTRYNQKFKGKATLTVDTSSSTAYMQLSSLTSEDSAVYYCTTWEVDYWGQGTTLTVSS VL: DVVMTQTPLSLPVSLGDQASISCRSSQSLVHSDGNTYLHWYLQKPGQSPKLLIYKVSNRFSGVPDRFSGSGSGTDFTLKISRLEAEDLGVYFCSQSTHVPWTFGGGTKLEIK
3.26	2.59 fold of HT13	Cis-mAb HT16 (humanized) (antibody, V domains shown) VH: QVQLVQSGAEVKKPGASVKVSCKASGYTFTSYWIHWVRQRPGQGLEWIGVIDPSDSYTRYNQKFKGRVTLTVDTSASTAYMELSSLRSEDTAVYYCTTWEVDYWGQGTLVTVSS VL: DVVMTQSPLSLPVTLGQPASISCRSSQSLVHSDGNTYLNWYLQKPGQSPQLLIYKVSNRFSGVPDRFSGSGSGTDFTLKISRVEAEDVGVYFCSQSTHVPWTFGGGTKVEIK
30.2	24 fold of HT13	Cis-mAb HT14 (humanized) (antibody, V domains shown) VH: QVQLVQSGAELKKPGASVKMSCKASGYTFTSYWIHWVKQRPGQGLEWIGVIDPSDSYTRYNQKFKGRATLTVDTSASTAYMQLSSLTSEDSAVYYCTTWEVDYWGQGTTVTVSS VL: DVVMTQSPLSLPVTLGQPASISCRSSQSLVHSDGNTYLNWYLQKPGQSPQLLIYKVSNRFSGVPDRFSGSGSGTDFTLKISRVEAEDVGVYFCSQSTHVPWTFGGGTKVEIK
33.4	26.5 fold of HT13	Cis-mAb HT15 (humanized) (antibody, V domains shown) VH: QVQLVQSGAEVKKPGASVKMSCKASGYTFTSYWIHWVKQRPGQGLEWIGVIDPSDSYTRYNQKFKGRATLTVDTSASTAYMELSSLRSEDTAVYYCTTWEVDYWGQGTLVTVSS VL: DVVMTQSPLSLPVTLGQPASISCRSSQSLVHSDGNTYLNWYLQKPGQSPQLLIYKVSNRFSGVPDRFSGSGSGTDFTLKISRVEAEDVGVYFCSQSTHVPWTFGGGTKVEIK
4940	3920 fold of HT13	Cis-mAb HT17 (humanized) (antibody, V domains shown) VH: QVQLVQSGAEVKKPGASVKVSCKASGYTFTSYWIHWVRQRPGQGLEWIGVIDPSDSYTRYNQKFKGRVTITRDTSASTAYMELSSLRSEDTAVYYCTTWEVDYWGQGTLVTVSS VL: DVVMTQSPLSLPVTLGQPASISCRSSQSLVHSDGNTYLNWYLQKPGQSPQLLIYKVSNRFSGVPDRFSGSGSGTDFTLKISRVEAEDVGVYFCSQSTHVPWTFGGGTKVEIK

The next lines start with the binder.

Binder	Kd [nM]	Relative KD
Cis-mAb HT5 (humanized) (antibody, V domains shown) VH: QVQLVQSGAELKKPGASVKMSCKASGYTFTSYWIHWVKQRPGQGLEWIGVIDPSDSYTRYNQKFKGRATLTVDTSASTAYMQLSSLTSEDSAVYYCTTWEVDYWGQGTTVTVSS VL: DVVMTQSPLSLPVTLGQPASISCRSSQSLVHSDGNTYLHWYLQKPGQSPQLLIYKVSNRDSGVPDRFSGSGSGTDFTLKISRVEAEDVGVYFCSQSTHVPWTFGGGTKVEIK	6.91	5.48 fold of HT13
Cis-mAb HT7 (humanized) (antibody, V domains shown) VH: QVQLVQSGAEVKKPGASVKVSCKASGYTFTSYWIHWVRQRPGQGLEWIGVIDPSDSYTRYNQKFKGRVTLTVDTSASTAYMELSSLRSEDTAVYYCTTWEVDYWGQGTLVTVSS VL: DVVMTQSPLSLPVTLGQPASISCRSSQSLVHSDGNTYLHWYLQKPGQSPQLLIYKVSNRDSGVPDRFSGSGSGTDFTLKISRVEAEDVGVYFCSQSTHVPWTFGGGTKVEIK	10.8	8.57 fold of HT13
Cis-mAb HT2 (humanized) (antibody, V domains shown) VH: QVQLVQSGAEVKKPGASVKMSCKASGYTFTSYWIHWVKQRPGQGLEWIGVIDPSDSYTRYNQKFKGRATLTVDTSASTAYMELSSLRSEDTAVYYCTTWEVDYWGQGTLVTVSS VL: DVVMTQSPLSLPVTLGQPASISCRSSQSLVHSDGNTYLHWYLQKPGQSPQLLIYKVSNRFSGVPDRFSGSGSGTDFTLKISRVEAEDVGVYFCSQSTHVPWTFGGGTKVEIK	1.62	1.29 fold of HT13
Cis-mAb HT8 (humanized) (antibody, V domains shown) VH: QVQLVQSGAEVKKPGASVKVSCKASGYTFTSYWIHWVRQRPGQGLEWIGVIDPSDSYTRYNQKFKGRVTITRDTSASTAYMELSSLRSEDTAVYYCTTWEVDYWGQGTLVTVSS VL: DVVMTQSPLSLPVTLGQPASISCRSSQSLVHSDGNTYLHWYLQKPGQSPQLLIYKVSNRDSGVPDRFSGSGSGTDFTLKISRVEAEDVGVYFCSQSTHVPWTFGGGTKVEIK	7.68	6.11 fold of HT13
Cis-mAb HT4 (humanized) (antibody, V domains shown) VH: QVQLVQSGAEVKKPGASVKVSCKASGYTFTSYWIHWVRQRPGQGLEWIGVIDPSDSYTRYNQKFKGRVTITRDTSASTAYMELSSLRSEDTAVYYCTTWEVDYWGQGTLVTVSS VL: DVVMTQSPLSLPVTLGQPASISCRSSQSLVHSDGNTYLHWYLQKPGQSPQLLIYKVSNRFSGVPDRFSGSGSGTDFTLKISRVEAEDVGVYFCSQSTHVPWTFGGGTKVEIK	2.42	1.92 fold of HT13
Cis-mAb HT10 (humanized) (antibody, V domains shown) VH: QVQLVQSGAEVKKPGASVKMSCKASGYTFTSYWIHWVKQRPGQGLEWIGVIDPSDSYTRYNQKFKGRATLTVDTSASTAYMELSSLRSEDTAVYYCTTWEVDYWGQGTLVTVSS VL: DVVMTQSPLSLPVTLGQPASISCRSSQSLVHSDGNTYLHWYLQKPGQSPQLLIYKVSNRFSGVPDRFSGSGSGTDFTLKISRVEAEDVGVYYCSQSTHVPWTFGGGTKVEIK	1.77	1.4 fold of HT13
Cis-mAb HT12 (humanized) (antibody, V domains shown) VH: QVQLVQSGAEVKKPGASVKVSCKASGYTFTSYWIHWVRQRPGQGLEWIGVIDPSDSYTRYNQKFKGRVTITRDTSASTAYMELSSLRSEDTAVYYCTTWEVDYWGQGTLVTVSS VL: DVVMTQSPLSLPVTLGQPASISCRSSQSLVHSDGNTYLHWYLQKPGQSPQLLIYKVSNRFSGVPDRFSGSGSGTDFTLKISRVEAEDVGVYYCSQSTHVPWTFGGGTKVEIK	3.55	2.82 fold of HT13
Cis-mAb HT6 (humanized) (antibody, V domains shown) VH: QVQLVQSGAEVKKPGASVKMSCKASGYTFTSYWIHWVKQRPGQGLEWIGVIDPSDSYTRYNQKFKGRATLTVDTSASTAYMELSSLRSEDTAVYYCTTWEVDYWGQGTLVTVSS VL: DVVMTQSPLSLPVTLGQPASISCRSSQSLVHSDGNTYLHWYLQKPGQSPQLLIYKVSNRDSGVPDRFSGSGSGTDFTLKISRVEAEDVGVYFCSQSTHVPWTFGGGTKVEIK	6.48	5.14 fold of HT13
Cis-mAb HT9 (humanized) (antibody, V domains shown) VH: QVQLVQSGAELKKPGASVKMSCKASGYTFTSYWIHWVKQRPGQGLEWIGVIDPSDSYTRYNQKFKGRATLTVDTSASTAYMQLSSLTSEDSAVYYCTTWEVDYWGQGTTVTVSS VL: DVVMTQSPLSLPVTLGQPASISCRSSQSLVHSDGNTYLHWYLQKPGQSPQLLIYKVSNRFSGVPDRFSGSGSGTDFTLKISRVEAEDVGVYYCSQSTHVPWTFGGGTKVEIK	1.89	1.5 fold of HT13
Cis-mAb HT3 (humanized) (antibody, V domains shown) VH: QVQLVQSGAEVKKPGASVKVSCKASGYTFTSYWIHWVRQRPGQGLEWIGVIDPSDSYTRYNQKFKGRVTLTVDTSASTAYMELSSLRSEDTAVYYCTTWEVDYWGQGTLVTVSS VL: DVVMTQSPLSLPVTLGQPASISCRSSQSLVHSDGNTYLHWYLQKPGQSPQLLIYKVSNRFSGVPDRFSGSGSGTDFTLKISRVEAEDVGVYFCSQSTHVPWTFGGGTKVEIK	3.51	2.79 fold of HT13
Cis-mAb HT1 (humanized) (antibody, V domains shown) VH: QVQLVQSGAELKKPGASVKMSCKASGYTFTSYWIHWVKQRPGQGLEWIGVIDPSDSYTRYNQKFKGRATLTVDTSASTAYMQLSSLTSEDSAVYYCTTWEVDYWGQGTTVTVSS VL: DVVMTQSPLSLPVTLGQPASISCRSSQSLVHSDGNTYLHWYLQKPGQSPQLLIYKVSNRFSGVPDRFSGSGSGTDFTLKISRVEAEDVGVYFCSQSTHVPWTFGGGTKVEIK	1.83	1.45 fold of HT13
Cis-mAb HT11 (humanized) (antibody, V domains shown) VH: QVQLVQSGAEVKKPGASVKVSCKASGYTFTSYWIHWVRQRPGQGLEWIGVIDPSDSYTRYNQKFKGRVTLTVDTSASTAYMELSSLRSEDTAVYYCTTWEVDYWGQGTLVTVSS VL: DVVMTQSPLSLPVTLGQPASISCRSSQSLVHSDGNTYLHWYLQKPGQSPQLLIYKVSNRFSGVPDRFSGSGSGTDFTLKISRVEAEDVGVYYCSQSTHVPWTFGGGTKVEIK	3.99	3.17 fold of HT13

From patent US20230348578A1, “CONFORMATION-SPECIFIC ANTIBODIES THAT BIND TAU PROTEIN AND USES THEREOF” (Beth Israel Deaconess Medical Center, Inc., priority 2020, published 2023)
